According to publication PMC9157124 (Plant Physiology, 2022):

Biological target: N-terminal FLAG-tagged D1 (FLAG-D1) (Synechocystis sp. PCC 6803, UniProt P16033 1-344)
Experiment: co-IP

stoichiometry N: ~1
B1: Ycf48 assembly factor (natural protein, Synechocystis sp. PCC 6803 (endogenous), UniProt P73069 29-342, looked up)
chain: CSHVPDLAFNPWQEIALETDSTFADIAFTEDPNHGWLVGTKETIFETTDGGDTWEQKLIDLGEEKASFSAVSFSGNEGWITGKPSILLHTTDGGQTWARIPLSEKLPGAPYSIIALGPQTAEMITDLGAIYKTTNGGKNWKALVEGAVGVARTIQRSTDGRYVAVSARGNFYSTWAPGQTEWTPHNRNSSRRLQTMGYGKDGQLWLLARGGQLQFSTDPDAEEWSDVIAPQDKGSWGLLDLSFRTPEEVWVAGASGNLLMSQDGGQTWAKDTGVEDIPANLYRVVFLSPEKGFVLGQDGILLKYNPSTEVAMVP
